Experimental data taken from PMC6215862, “AlNAC4 Transcription Factor From Halophyte Aeluropus lagopoides Mitigates Oxidative Stress by Maintaining ROS Homeostasis in Transgenic Tobacco”.

Key:
[1] = target: T1, AlNAC4 (Aeluropus lagopoides, UniProt A0A220T1T2 1-312); test: EMSA; 15 mM HEPES, 35 mM KCl, 1 mM EDTA pH 8.0, 1 mM DTT, 1 mM MgCl2, 6% glycerol, 4 ug glycogen, 25 ul, room temperature 20 min; 10% acrylamide 0.5x TBE gel, ethidium bromide stain; settings: protein: recombinant; tags: 6xHis (pET-28a; not thrombin-cleaved); chain copies: 2; blunt
T1 sequence: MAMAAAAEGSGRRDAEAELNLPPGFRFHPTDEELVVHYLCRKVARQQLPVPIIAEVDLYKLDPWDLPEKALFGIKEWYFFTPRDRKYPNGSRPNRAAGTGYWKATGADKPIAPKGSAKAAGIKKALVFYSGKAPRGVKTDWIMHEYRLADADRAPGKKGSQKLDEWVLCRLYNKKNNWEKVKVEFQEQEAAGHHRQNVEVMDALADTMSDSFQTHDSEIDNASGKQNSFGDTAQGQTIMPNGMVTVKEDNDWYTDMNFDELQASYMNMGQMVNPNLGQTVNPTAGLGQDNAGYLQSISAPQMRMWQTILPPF

[2] = target: T1, AlNAC4; test: EMSA; 80 ng probe, 300-2400 ng protein; binding increases with protein; 15 mM HEPES, 35 mM KCl, 1 mM EDTA pH 8.0, 1 mM DTT, 1 mM MgCl2, 6% glycerol, 4 ug glycogen, 25 ul, room temperature 20 min; 10% acrylamide 0.5x TBE gel, ethidium bromide stain; settings: protein: recombinant, tags: 6xHis (pET-28a; not thrombin-cleaved), chain copies: 2
[3] = target: T1, AlNAC4; test: EMSA; data not shown; 15 mM HEPES, 35 mM KCl, 1 mM EDTA pH 8.0, 1 mM DTT, 1 mM MgCl2, 6% glycerol, 4 ug glycogen, 25 ul, room temperature 20 min; 10% acrylamide 0.5x TBE gel, ethidium bromide stain; settings: protein: recombinant; tags: 6xHis (pET-28a; not thrombin-cleaved); chain copies: 2; blunt

B1: pBSK+ MCS (dsDNA)
DNA 1: GGGGATCCACTAGTTCTAGAGCGGCCGCCA
DNA 2: TGGCGGCCGCTCTAGAACTAGTGGATCCCC
B1: no binding [1].

B2: NACBS (single NACRS with flanks, erd1 promoter) (dsDNA)
DNA 1: AGCTTGTGCAACTTGAGCTCTTCTTCTGTAACACGCATGTGTTGCGTTTGGTTTTTAATTTATTTGCCA
DNA 2: TGGCAAATAAATTAAAAACCAAACGCAACACATGCGTGTTACAGAAGAAGAGCTCAAGTTGCACAAGCT
B2: binds ([2]; blunt).

B3: mutated NACBS (CATGTG to AAAAAA, AACA to TTAA) (dsDNA)
DNA 1: AGCTTGTGCAACTTGAGCTCTTCTTCTGTTTAACGAAAAAATTGCGTTTGGTTTTTAATTTATTTGCCA
DNA 2: TGGCAAATAAATTAAAAACCAAACGCAATTTTTTCGTTAAACAGAAGAAGAGCTCAAGTTGCACAAGCT
B3: no binding [3].

B4: NACBST (tandem NACRS, erd1 promoter) (dsDNA)
DNA 1: GGCCGCACACGCATGTGACACGCATGTGACACGCATGTGACACGCATGTGA
DNA 2: CTAGTCACATGCGTGTCACATGCGTGTCACATGCGTGTCACATGCGTGTGC
B4: binds ([2]; 5' overhangs 4 nt on both strands (GGCC, CTAG)).
